The values below come from PMC7083937, “The ribosome-associated complex RAC serves in a relay that directs nascent chains to Ssb” (Nature Communications, 2020).

A word on the Kd: it is the free concentration of one partner at which half of the binding sites on the other are occupied at equilibrium, for simple one-to-one binding.

Data set [1] deals with nascent Pgk1 chains of 50–150 residues. The experiment in a line: crosslinking to ribosome-bound nascent chain. The data set is classed as binding, Saccharomyces cerevisiae. To be noted: Δssb1Δssb2 translation extract (Ssb absent); BS3. The text has this: (§1) DNA templates for transcription reactions were generated by PCR using pSPUTK-Pgk1[20] as a template. Reverse primers were designed such, that PCR products encoded different length PGK1 sequences, which all lacked a stop codon. The length of the resulting translation products, which remain ribosome-bound, is indicated in Results and Figure Legends. Transcripts were generated using SP6 polymerase (Thermo Fischer Scientific) as previously described. RNCs were generated via translation reactions primed with the stop codon-less transcripts at 20 °C in the presence of [^35S]-methionine (Hartmann-Analytic) for 80 min[20],[54]. Translation reactions were stopped by the addition of 50 µg/ml cycloheximide final concentration and subsequently RNCs were isolated via centrifugation at 400.000 g for 20 min in a TLA-100 or TLA-100.2 rotor (Beckman Coulter)[20].
(§2) Chemical crosslinking of ribosome-bound nascent chains to Ssb, Zuo1, or Ssz1 was analyzed essentially as described. In brief, resuspended RNCs were incubated in the presence of 400 µM BS^3 (bis-(sulfosuccinimidyl)-suberate, spacer length 1.14 nm, Thermo Scientific) for 20 min on ice and crosslinking was then quenched by the addition of TRIS base (tris(hydroxymethyl)aminomethane) to a final concentration of 50 mM. Crosslinked protein samples were precipitated by the addition of TCA (final concentration 5%), pellets were collected by centrifugation and were dissolved in dissociation buffer (200 mM TRIS/HCl pH 7.5, 4% SDS; 10 mM EDTA, 100 µg/ml BSA, protease inhibitor mix, 1 mM PMSF). Totals shown in Figs. 1,3 and Supplementary Fig. 1 before (total) and after BS^3 crosslinking (total + BS^3) represent 5% of the dissolved material employed for immunoprecipitation reactions. The resulting denatured protein samples were used to identify crosslink products between Ssb, Zuo1, or Ssz1 and nascent chains via affinity purification under denaturing conditions. To that end, protein A sepharose beads (GE Healthcare) were pre-coated with antibodies directed against Ssb, Zuo1, or Ssz1 and subsequently the denatured crosslinked material was allowed to bind to the beads resuspended in immunoprecipitation buffer (10 mM TRIS/HCl pH 7.5, 150 mM NaCl, 5 mM EDTA, 1% Triton X-100, protease inhibitor mix, 0.5 mM PMSF)[20]. Crosslink products bound to protein A sepharose beads were released by addition of SDS-sample buffer at 95 °C for 10 min. Samples were analyzed on Tris-Tricine gels[56] followed by autoradiography. Loading was normalized according to the signal of [^35S]-labelled nascent Pgk1 in the total prior to crosslinking. Relative crosslinking efficiencies between nascent Pgk1-100 and Zuo1 or Ssz1, respectively were determined as follows. For each biological replicate, band intensities of non-crosslinked nascent Pgk1-100 and of Pgk1-100 crosslink products (XL-Zuo1 or XL-Ssz1) was determined on a single autoradiograph for wild type RAC and the different mutant variants of RAC. The crosslinking efficiency (XL-Zuo1/Pgk1-100 or XL-Ssz1/Pgk1-100) of each sample was calculated and subsequently the ratio of XL-Zuo1/Pgk1-100 or XL-Ssz1/Pgk1-100 in the presence of wild type RAC was set to 1 in order to normalize the biological replicates (see Fig. 3c,d). The original data are provided as a Source Data file.

The test system of the next data set is nascent Pgk1-50. The experiment in a line: crosslinking to ribosome-bound nascent chain. The data set is classed as binding, Saccharomyces cerevisiae. To be noted: wild type translation extract; BS3.
From the text: as §1, §2

Another data set deals with nascent Pgk1-45. In words: crosslinking to ribosome-bound nascent chain. The note with it: wild type translation extract; BS3. The data set is classed as binding, Saccharomyces cerevisiae.
From the text: as §1, §2

Another data set deals with nascent Pgk1-40. The experiment in a line: crosslinking to ribosome-bound nascent chain. The data set is classed as binding, Saccharomyces cerevisiae. To be noted: wild type translation extract; BS3.
From the text: as §1, §2

A further data set concerns ribosomes. The experiment in a line: ribosome-binding assay. To be noted: total cell extract. The arrangement: species or system Saccharomyces cerevisiae. The method, then: Yeast strains were grown to early log phase on YPD, prior to harvest cycloheximide was added to a final concentration of 100 µg/ml, and subsequently cells were collected via centrifugation at 5000 g. Cell pellets were resuspended in ribosome-binding buffer (20 mM Hepes/KOH pH 7.4, 2 mM Mg(OAc)2, 120 mM KOAc, 100 µg/ml cycloheximide, 2 mM DTT, 1 mM PMSF, protease inhibitor mix) and total cell extracts were prepared by the glass beads method. After a clearing spin at 20.000 g, each 60 µl of the total glass beads extract (A260 between 80 and 100 mAU) was loaded onto a 90 µl sucrose cushion (25% sucrose, 20 mM Hepes/KOH pH 7.4, 120 mM KOAc, 2 mM Mg(OAc)2, 2 mM DTT, 1 mM PMSF, protease inhibitor mix). After centrifugation at 400.000 g at 4 °C for 25 min the cytosolic supernatant was collected and the ribosomal pellet was resuspended in 300 µl ribosome-binding buffer. Aliquots of the total cell extract, cytosolic supernatant, and resuspended ribosomal pellets were precipitated by addition of TCA (trichloroacetic acid) to a final concentration of 5%. TCA pellets were dissolved in SDS-sample buffer and were analyzed on 10% Tris-Tricine gels followed by immunoblotting.

A short description of data set [2]: nanoDSF thermal stability of RAC core complexes. The note with it: 20 mM Hepes/KOH pH 7.5, 200 mM KCl, 5 mM MgCl2, 1 mM DTT, 20 to 90 °C at 1.5 °C/min, 330/350 nm, no peptide, three measurements shown. The data set is classed as physicochemical, Saccharomyces cerevisiae. The method, then:
The melting temperature of ScSsz1-Zuo1N, ScSsz1-Zuo1NΔLP or ScSsz1mut-Zuo1NΔLP with or without the LP-peptide (Peptide Specialty Laboratories GmbH, Heidelberg) were determined using the Prometheus NT.48 nanoDSF system using nano-DSF grade capillaries (NanoTemper Technologies GmbH). The measurements were performed in 20 mM Hepes/KOH pH 7.5, 200 mM KCl, 5 mM MgCl2, 1 mM DTT. The LP-peptide, which was dissolved in DMSO, was pre-diluted in the above buffer such that the final DMSO concentration in the experiment was below 0.5%. DMSO diluted in the same way was added to the negative control. Intrinsic protein fluorescence was measured continuously at 330 nm and 350 nm with a temperature gradient ranging from 20 to 90 °C at a rate of 1.5 °C/min. […]
(a-b) NanoDSF analysis of Ssz1-Zuo1N (blue) and Ssz1-Zuo1NDLP (orange) in a and Ssz1-Zuo1NDLP wit hout t he LP-pept ide (orange) or wit h t he LP-pept ide (blue) in b. Three measurements are shown.
Source data are provided as a Source Dat a f ile.
(c) Residues (L439S/K440P/I448F/G495K) mutated in Ssz1mut to block substrate binding to Ssz1-SBDb (cyan) are in stick representation (upper panel). Zuo1N is shown in orange a nd the LP-motif in yellow. Multiple sequence alignment of Hsp70 homologs (lower panel) wit h the mutations highlighted in yellow. The alignment is colored as in Fig. 2a. […]
Background: Differential scanning fluorimetry follows unfolding on heating by fluorescence.

The target in data set [3] is T1, ScSsz1-Zuo1NΔLP complex (ScSsz1 with ScZuo1NΔLP residues 10-50) (S. cerevisiae, UniProt P38788 1-538; P32527 10-50).
T1 construct: Ssz1, S. cerevisiae; Zuo1, S. cerevisiae, residues 10-50, lacking the LP-motif (ScZuo1NΔLP); residues of the 3C site may be left on Zuo1NΔLP; not shown: His6-MBP, N-terminal, cleaved
T1 sequence (looked up) 1: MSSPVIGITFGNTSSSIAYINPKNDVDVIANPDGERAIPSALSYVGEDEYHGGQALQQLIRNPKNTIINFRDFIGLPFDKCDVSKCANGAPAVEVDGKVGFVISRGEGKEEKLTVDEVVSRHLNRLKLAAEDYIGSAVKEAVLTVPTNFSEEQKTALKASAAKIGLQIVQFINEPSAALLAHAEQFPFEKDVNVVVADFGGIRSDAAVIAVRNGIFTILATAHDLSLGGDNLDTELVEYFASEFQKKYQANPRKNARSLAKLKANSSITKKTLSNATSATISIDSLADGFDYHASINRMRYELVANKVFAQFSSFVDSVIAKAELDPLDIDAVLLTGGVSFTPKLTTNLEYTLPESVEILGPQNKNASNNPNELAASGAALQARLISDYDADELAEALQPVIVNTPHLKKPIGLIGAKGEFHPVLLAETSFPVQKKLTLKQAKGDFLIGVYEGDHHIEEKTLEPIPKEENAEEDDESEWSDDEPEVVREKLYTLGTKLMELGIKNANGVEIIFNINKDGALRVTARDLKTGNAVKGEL
T1 sequence (looked up) 2: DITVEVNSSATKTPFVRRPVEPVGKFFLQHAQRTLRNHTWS
The experiment in a line: nanoDSF; melting temperature of the complex with or without LP-peptide; 20 mM Hepes/KOH pH 7.5, 200 mM KCl, 5 mM MgCl2, 1 mM DTT; 20 to 90 °C at 1.5 °C/min. The note with it: both partners purified.

The target of data set [4] is T1, ScSsz1-Zuo1NΔLP complex (ScSsz1 with …). The experiment in a line: fluorescence polarisation; fluorescence anisotropy; two-fold serial dilutions of the protein complex mixed 1:1 with 40 nM fluorescein peptide; 20 mM Hepes/KOH pH 7.5, 200 mM KCl, 5 mM MgCl2, 1 mM DTT, 1 µM BSA; room temperature, 30 min; one-site binding fit; affinity called estimated. To be noted: both partners purified.

No end group written: not given here. fluorescein = fluorescein (N-terminal label)

B1: Ssz1: Hsp70 homolog, RAC subunit (protein)
chain: T1 sequence (looked up) 1
modifications: left off: His6-SUMO, N-terminal, state not stated
notes: Hsp70 homolog, RAC subunit
With B1, in data set [1], the “crosslink to nascent chains of 50–150 residues” value is “efficient crosslinks”. In addition, the “crosslink to nascent Pgk1-50” value in the data set on nascent Pgk1-50 is “below the detection limit”. Further, the “crosslink to nascent Pgk1-45” value with nascent Pgk1-45 is reported as “most efficiently crosslinked to Pgk1-45”. Also, in the data set with nascent Pgk1-40, the “crosslink to nascent Pgk1-40” value is on record as “formed crosslinks with these short nascent chains”. Moreover, in the data set with ribosomes, the “localization of Ssz1 in RAC-∆N49” value was “localized to the cytosol” and the “localization of Ssz1 in wild type, RAC-∆N8, or RAC-∆N16” value is listed as “ribosome-bound”.

B2: RAC core complex: ScSsz1 with ScZuo1N (residues 1-50) (protein)
chain 1: T1 sequence (looked up) 1
chain 2: MFSLPTLTSDITVEVNSSATKTPFVRRPVEPVGKFFLQHAQRTLRNHTWS
modifications: left off: His6-SUMO, N-terminal, state not stated | His6-MBP, N-terminal, cleaved
In the case of B2, the “melting temperature (thermal stability of RAC core complex)” value in data set [2] came to 52.9 °C.

B3: LP-peptide (MFSLPTL, ScZuo1 residues 1-7), free peptide (peptide)
peptide: MFSLPTL
notes: LP-motif of Zuo1, S. cerevisiae, residues 1-7; source: synthetic peptide (Peptide Specialty Laboratories GmbH, Heidelberg)
With B3, in data set [3], the binding result is on record as “binds”.

B4: LP-peptide (MFSLPTL) labelled at the N terminus with fluorescein (peptide)
peptide: fluorescein-MFSLPTL
notes: as for B3
On to B4, for which, in data set [4], the Kd is 11.9 ± 4 µM.
